Assay results taken from article PMC7408900, “Cancer-Associated Substitutions in RNA Recognition Motifs of PUF60 and U2AF65 Reveal Residues Required for Correct Folding and 3′ Splice-Site Selection”.

Tests used:
[1] = biological target: T1, PUF60 WT (human, UniProt Q9UHX1 1-559); experiment: EMSA; Kd only in figure; Hill 3.0; similar affinity to can probe; EMSA: 40 mM Tris pH 8.0, 5 mM MgCl2, 0.25 ug/uL heparin, 0.01% Triton, 1 mM DTT, room temperature 20 min; 6% native PAGE in 0.5x TBE at 4 C; 15-17 nM biotin-RNA; settings: protein: recombinant; tags: 2xHis-lipoyl-TEV, removed by TEV; label: 5' biotin; single strand
T1 sequence (Q9UHX1 whole entry): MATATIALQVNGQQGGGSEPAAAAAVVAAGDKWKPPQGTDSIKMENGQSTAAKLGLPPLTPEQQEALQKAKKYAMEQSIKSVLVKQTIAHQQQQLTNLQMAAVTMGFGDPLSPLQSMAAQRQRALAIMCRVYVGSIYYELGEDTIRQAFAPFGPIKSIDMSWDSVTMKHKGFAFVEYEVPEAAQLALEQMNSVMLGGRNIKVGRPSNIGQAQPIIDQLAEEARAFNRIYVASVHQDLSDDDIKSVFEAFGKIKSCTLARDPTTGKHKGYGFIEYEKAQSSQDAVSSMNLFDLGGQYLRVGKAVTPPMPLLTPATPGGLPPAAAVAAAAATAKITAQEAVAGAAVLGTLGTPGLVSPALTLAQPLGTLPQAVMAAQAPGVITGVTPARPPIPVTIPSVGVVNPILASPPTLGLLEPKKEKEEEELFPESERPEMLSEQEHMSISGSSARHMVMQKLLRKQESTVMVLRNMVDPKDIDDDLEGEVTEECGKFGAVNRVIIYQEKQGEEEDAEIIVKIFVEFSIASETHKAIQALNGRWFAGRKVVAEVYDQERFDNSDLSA

[2] = biological target: T2, U2AF65 WT (human, UniProt P26368 1-475); experiment: EMSA; Kd shown only in figure; 0.13-4.2 uM protein; similar affinity to can probe; EMSA: 40 mM Tris pH 8.0, 5 mM MgCl2, 0.25 ug/uL heparin, 0.01% Triton, 1 mM DTT, room temperature 20 min; 6% native PAGE in 0.5x TBE at 4 C; 15-17 nM biotin-RNA; settings: protein: recombinant; tags: N-terminal GST (pGEX6P, eluted with glutathione); label: 5' biotin; single strand
T2 sequence (P26368 whole entry, one chain of several): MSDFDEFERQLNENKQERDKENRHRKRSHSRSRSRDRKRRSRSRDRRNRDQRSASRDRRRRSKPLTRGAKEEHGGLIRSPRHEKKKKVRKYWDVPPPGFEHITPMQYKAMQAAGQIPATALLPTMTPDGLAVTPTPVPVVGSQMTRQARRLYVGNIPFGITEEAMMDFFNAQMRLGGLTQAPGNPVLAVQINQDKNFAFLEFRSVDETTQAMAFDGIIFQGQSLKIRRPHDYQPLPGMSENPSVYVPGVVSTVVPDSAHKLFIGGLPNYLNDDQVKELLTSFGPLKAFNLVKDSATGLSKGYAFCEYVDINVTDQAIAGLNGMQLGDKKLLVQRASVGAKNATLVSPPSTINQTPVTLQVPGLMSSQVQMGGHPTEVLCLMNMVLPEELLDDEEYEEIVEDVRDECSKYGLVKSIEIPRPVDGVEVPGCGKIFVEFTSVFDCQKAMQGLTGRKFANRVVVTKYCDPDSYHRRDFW

[3] = biological target: T1, PUF60 WT; experiment: EMSA; Kd only in figure; Hill 2.6; similar affinity to cr probe; EMSA: 40 mM Tris pH 8.0, 5 mM MgCl2, 0.25 ug/uL heparin, 0.01% Triton, 1 mM DTT, room temperature 20 min; 6% native PAGE in 0.5x TBE at 4 C; 15-17 nM biotin-RNA; settings: protein: recombinant; tags: 2xHis-lipoyl-TEV, removed by TEV; label: 5' biotin; single strand
[4] = biological target: T2, U2AF65 WT; experiment: EMSA; Kd shown only in figure; 0.13-4.2 uM protein; similar affinity to cr probe; EMSA: 40 mM Tris pH 8.0, 5 mM MgCl2, 0.25 ug/uL heparin, 0.01% Triton, 1 mM DTT, room temperature 20 min; 6% native PAGE in 0.5x TBE at 4 C; 15-17 nM biotin-RNA; settings: protein: recombinant; tags: N-terminal GST (pGEX6P, eluted with glutathione); label: 5' biotin; single strand
[5] = biological target: T1, PUF60 WT; experiment: EMSA; strong binding; 0.14-1.25 uM protein, 15 nM RNA; EMSA: 40 mM Tris pH 8.0, 5 mM MgCl2, 0.25 ug/uL heparin, 0.01% Triton, 1 mM DTT, room temperature 20 min; 6% native PAGE in 0.5x TBE at 4 C; 15-17 nM biotin-RNA; settings: protein: recombinant; tags: 2xHis-lipoyl-TEV, removed by TEV; label: 5' biotin; single strand

Binder: CUUUUUGUUUCCUUUUUUUUUUAAUUUAAAGG (ssRNA) [UBE2F-cr3'ss-32]
- binding result [1]: binds
- binding result [2]: binds

Binder: UUUUUUUGUUUUGUUUUGUGUUUUUUGAUAGA (ssRNA) [UBE2F-can3'ss-32]
- binding result [3]: binds
- binding result [4]: binds

Binder: UUCGUGCUGACCUGUCCCUUUUUUUUCCACAGC (ssRNA) [AdML]
- binding result [5]: binds
